# Measured values published in the supplement of paper PMC9170038.
# Tested on: MS2 coat protein
# Assay: apparent KD of MS2 coat protein; higher = weaker reporter binding
# Conditions: Eterna round: R107; input ligand: theophylline 20 uM
# Protocol: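 RNA-MaP round R107: designed RNA switches with theophylline, tryptophan, arginine or FMN aptamers are transcribed on-chip within common flanks. They are titrated with SNAP-549-labelled MS2 coat protein in RNA-MaP buffer (100 mM Tris pH 7.5, 80 mM KCl, 4 mM MgCl2), without ligand or with the indicated ligand. Median apparent KD per design.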
row,Sequence,apparent KD of MS2 coat protein [nM]
1,ACAUGAGGAUCACCCAUGUGAGAUAGGGAAGGAGCGCAGGAGGAUGCAGGUAGGUCGCCCACAUGAGGAUCACCCGUGUCUGGAG [#11 Exclusion - Arginine A],33
2,AUCUUUGAUGAUCUGGGAAAACCAGAUCGGCGAGGACCGGUACGGCCGCCACUCGUGUAUAAUAUACAUGAGGAUCACCCAUGUA [#20 Tryptophan A Same State],99
3,UCGCUCUGGGUGAGAUCCGGAGAUAUGGAAGGAGCGCUGAUGCCAGCAGGUAGGUCGCCAACGGACAUGAGGAUCACCCAUGUAC [Same State - Arginine A (Freestyle 10)],64.2
4,AAAUAAAUACAUGAGGAUCACCCAUGUGAAGGAGCGGCCGUUAGGCCAGGUAGGUCGCGCAUGAAUAACUCCGUGCAUAAGCACA [MAT - Exclusion Arginine A - Mod of Eli - D18],16.6
5,CACAUGAGGAUCACCCAUGUGUAAUAUGAAGGAGCGUCGGAAAUGACAGGUAGGUCGCAUGAAAUGCAAGUGUGUGAGGUUGUGA [EAA NP+V+V2 #12],17.7
6,GAUGAACUAUAUGAUACCAGACAACAUGAGGAUCACCCAUGUGAAUGUCGUCCUCUGCCUGUCCCUUGGCAGCGUAUAGUUUAUC [XTheo B #15],67.6
7,UAGUUAGCGGCGGCCGCCACUCGAGAUAUAACAUGAUAUCAUAACAUGAGGAUCACCCAUGUCACGAGGACCGGGCCGAUCUUCA [Same State Typptophan B GF6],102
8,UAUAUAUAUAUGGAUACCAGCAGAGAAAACGUUUAUCCUAACAUGAGGAUCACCCAUGUAUGCCCUUGGCAGCUGUAUAUAUAUA [8.G],29.5

# Same assay, conditions: Eterna round: R107; input ligand: theophylline 2 mM
row,Sequence,apparent KD of MS2 coat protein [nM]
1,AGGCUUCGCAUAGGAAAACUAUGUGAAGCCCGAGGACCGGUACGGCCGCCACUCGUCCUCAACAUGAGGAUCACCCAUGUAAUAA [Mat - Exclusion - Trytophan A - D1],24.6
2,AUUCAUGAAAACAUGACAUGAGGAUCACUCCGAGGACCGGUACGGCCGCCACUCGCGAGGAGGCACAUGAGGAUCACCCAUGUUA [SS Tryp A #2],143
3,GUCGGUACGUCGGCAAAGCCGAUGUGCCAGCGAGGACCGGUACGGCCGCCACUCGUACAUGAGGAUCACCCAUGUCCGGUCCGGC [Omei Trp SS A C v2],92.4
4,UCACAUGAGGAUCACCCAUGUCCAGGUGAAGGAGCGAUUAGGGAGUCAGGUAGGUCGCACCACAUGAGGAUCACCCAUGUGCCUG [EAA NP+V+V2 #8 DOUBLE],25.4
5,CUAUAUGGAAACAUAUAGAAGCGAAAGCAGCGAGGACCGGUACGGCCGCCACUCGCAGAGUGGUGGACAUGAGGAUCACCCAUGU [Design 2],74.6
6,UCGUGUCUAUUGGUUUAGCUUUAAUCGUUACGAGGACCGGUACGGCCGCCACUCGAUUUAACAUGAGGAUCACCCAUGUACUCUC [JR_ExcTryptoA_Sub012],21.4
7,ACAUGAGGAUCACCCAUGUGAGAUAGGGAAGGAGCGCAGGAGGAUGCAGGUAGGUCGCCCACAUGAGGAUCACCCGUGUCUGGAG [#11 Exclusion - Arginine A],62.4
8,AUCUUUGAUGAUCUGGGAAAACCAGAUCGGCGAGGACCGGUACGGCCGCCACUCGUGUAUAAUAUACAUGAGGAUCACCCAUGUA [#20 Tryptophan A Same State],91.6
9,UCGCUCUGGGUGAGAUCCGGAGAUAUGGAAGGAGCGCUGAUGCCAGCAGGUAGGUCGCCAACGGACAUGAGGAUCACCCAUGUAC [Same State - Arginine A (Freestyle 10)],34.5
10,AAAUAAAUACAUGAGGAUCACCCAUGUGAAGGAGCGGCCGUUAGGCCAGGUAGGUCGCGCAUGAAUAACUCCGUGCAUAAGCACA [MAT - Exclusion Arginine A - Mod of Eli - D18],12.2
11,CACAUGAGGAUCACCCAUGUGUAAUAUGAAGGAGCGUCGGAAAUGACAGGUAGGUCGCAUGAAAUGCAAGUGUGUGAGGUUGUGA [EAA NP+V+V2 #12],10.5
12,UAGUUAGCGGCGGCCGCCACUCGAGAUAUAACAUGAUAUCAUAACAUGAGGAUCACCCAUGUCACGAGGACCGGGCCGAUCUUCA [Same State Typptophan B GF6],163

# Same assay, conditions: Eterna round: R107; input ligand: tryptophan 2.4 mM
row,Sequence,apparent KD of MS2 coat protein [nM]
1,AGGCUUCGCAUAGGAAAACUAUGUGAAGCCCGAGGACCGGUACGGCCGCCACUCGUCCUCAACAUGAGGAUCACCCAUGUAAUAA [Mat - Exclusion - Trytophan A - D1],28.8
2,GAUGAACUAUUUGAUACCAGACUACAUGAGGAUCACCCAUGUGCGCGUCGUCCUCUGCCAGUCCCUUGGCAGCAAAUAGUUUAUC [XTheo B #9],85.2
3,UCACAUGAGGAUCACCCAUGUCCAGGUGAAGGAGCGAUUAGGGAGUCAGGUAGGUCGCACCACAUGAGGAUCACCCAUGUGCCUG [EAA NP+V+V2 #8 DOUBLE],24.1
4,CUAUAUGGAAACAUAUAGAAGCGAAAGCAGCGAGGACCGGUACGGCCGCCACUCGCAGAGUGGUGGACAUGAGGAUCACCCAUGU [Design 2],40
5,AGAUUACAUGUUAUAAUACGGUAUACUGAUACCAGUGUUUCUAUUCACCCUUGGCAGCAGCAACAUGAGGAUCACCCAUGUAUUA [JR_SSTheophyA_Sub017],17.7
6,ACAUGAGGAUCACCCAUGUGAGAUAGGGAAGGAGCGCAGGAGGAUGCAGGUAGGUCGCCCACAUGAGGAUCACCCGUGUCUGGAG [#11 Exclusion - Arginine A],33.1
7,AUCUUUGAUGAUCUGGGAAAACCAGAUCGGCGAGGACCGGUACGGCCGCCACUCGUGUAUAAUAUACAUGAGGAUCACCCAUGUA [#20 Tryptophan A Same State],25.1
8,UCGCUCUGGGUGAGAUCCGGAGAUAUGGAAGGAGCGCUGAUGCCAGCAGGUAGGUCGCCAACGGACAUGAGGAUCACCCAUGUAC [Same State - Arginine A (Freestyle 10)],39.8
9,AAAUAAAUACAUGAGGAUCACCCAUGUGAAGGAGCGGCCGUUAGGCCAGGUAGGUCGCGCAUGAAUAACUCCGUGCAUAAGCACA [MAT - Exclusion Arginine A - Mod of Eli - D18],12.3
10,CACAUGAGGAUCACCCAUGUGUAAUAUGAAGGAGCGUCGGAAAUGACAGGUAGGUCGCAUGAAAUGCAAGUGUGUGAGGUUGUGA [EAA NP+V+V2 #12],10.9
11,GAUGAACUAUAUGAUACCAGACAACAUGAGGAUCACCCAUGUGAAUGUCGUCCUCUGCCUGUCCCUUGGCAGCGUAUAGUUUAUC [XTheo B #15],20.3
12,UAGUUAGCGGCGGCCGCCACUCGAGAUAUAACAUGAUAUCAUAACAUGAGGAUCACCCAUGUCACGAGGACCGGGCCGAUCUUCA [Same State Typptophan B GF6],49.4
13,UAUAUAUAUAUGGAUACCAGCAGAGAAAACGUUUAUCCUAACAUGAGGAUCACCCAUGUAUGCCCUUGGCAGCUGUAUAUAUAUA [8.G],24.7
